Assay [1] has as its target Endothelial nitric oxide synthase (Homo sapiens*) (UniProt P29474).
Assay [2] addresses purified human alpha globin (human) (UniProt P69905). Nature of the assay: BLI. In general terms: In BLI a coated tip is dipped into the sample, and binding shifts an interference pattern.

Alpha globin, sequence (P69905 2-142): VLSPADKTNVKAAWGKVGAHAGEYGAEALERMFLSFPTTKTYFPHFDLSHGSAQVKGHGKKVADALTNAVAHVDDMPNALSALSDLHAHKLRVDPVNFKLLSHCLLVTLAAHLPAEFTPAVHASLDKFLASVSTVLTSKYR
recombinant human eNOS oxidase domain (domain or fragment), sequence (P29474 2-1203): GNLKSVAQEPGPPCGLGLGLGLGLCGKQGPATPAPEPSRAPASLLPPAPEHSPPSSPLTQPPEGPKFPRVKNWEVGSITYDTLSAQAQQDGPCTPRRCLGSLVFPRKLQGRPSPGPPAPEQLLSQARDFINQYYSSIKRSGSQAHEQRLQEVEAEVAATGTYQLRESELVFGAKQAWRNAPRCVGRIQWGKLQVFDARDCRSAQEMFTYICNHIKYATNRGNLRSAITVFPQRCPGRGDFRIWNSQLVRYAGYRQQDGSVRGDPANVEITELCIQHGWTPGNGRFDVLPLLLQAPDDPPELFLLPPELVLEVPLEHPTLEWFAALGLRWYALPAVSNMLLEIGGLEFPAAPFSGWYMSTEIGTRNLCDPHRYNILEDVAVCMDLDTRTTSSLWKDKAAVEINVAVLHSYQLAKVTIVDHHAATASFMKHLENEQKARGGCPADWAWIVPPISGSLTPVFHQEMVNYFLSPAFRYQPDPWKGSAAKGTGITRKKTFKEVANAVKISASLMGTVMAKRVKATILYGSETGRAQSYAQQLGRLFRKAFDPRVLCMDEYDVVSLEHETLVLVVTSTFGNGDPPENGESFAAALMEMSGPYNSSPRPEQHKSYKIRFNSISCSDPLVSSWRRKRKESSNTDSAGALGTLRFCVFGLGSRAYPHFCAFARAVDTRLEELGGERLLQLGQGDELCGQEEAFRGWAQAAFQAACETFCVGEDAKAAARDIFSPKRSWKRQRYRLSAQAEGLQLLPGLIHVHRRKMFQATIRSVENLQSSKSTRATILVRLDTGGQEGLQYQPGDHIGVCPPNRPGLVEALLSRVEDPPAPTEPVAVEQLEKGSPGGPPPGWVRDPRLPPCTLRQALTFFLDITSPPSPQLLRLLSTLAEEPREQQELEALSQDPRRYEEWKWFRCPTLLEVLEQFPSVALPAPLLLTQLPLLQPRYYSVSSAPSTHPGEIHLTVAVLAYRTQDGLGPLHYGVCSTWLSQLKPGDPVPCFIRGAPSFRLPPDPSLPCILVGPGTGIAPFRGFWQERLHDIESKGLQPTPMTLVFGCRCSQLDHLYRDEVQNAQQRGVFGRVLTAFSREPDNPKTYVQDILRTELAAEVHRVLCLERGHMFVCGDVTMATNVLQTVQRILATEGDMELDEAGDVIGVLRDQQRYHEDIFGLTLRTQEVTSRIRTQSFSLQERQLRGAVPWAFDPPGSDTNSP
Endothelial nitric oxide synthase (Homo sapiens*), sequence (P29474 66-492): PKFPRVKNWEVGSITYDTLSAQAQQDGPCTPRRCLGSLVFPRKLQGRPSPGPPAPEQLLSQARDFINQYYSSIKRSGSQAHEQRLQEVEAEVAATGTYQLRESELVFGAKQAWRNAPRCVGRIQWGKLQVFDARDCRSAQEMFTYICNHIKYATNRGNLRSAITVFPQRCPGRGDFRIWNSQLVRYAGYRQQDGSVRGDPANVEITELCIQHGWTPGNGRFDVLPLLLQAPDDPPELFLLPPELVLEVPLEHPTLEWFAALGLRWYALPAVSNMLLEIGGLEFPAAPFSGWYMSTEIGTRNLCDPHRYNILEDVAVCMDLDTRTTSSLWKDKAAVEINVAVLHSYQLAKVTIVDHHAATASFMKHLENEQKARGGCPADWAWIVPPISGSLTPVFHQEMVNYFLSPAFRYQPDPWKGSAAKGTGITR
purified human alpha globin (human), sequence (P69905 whole entry): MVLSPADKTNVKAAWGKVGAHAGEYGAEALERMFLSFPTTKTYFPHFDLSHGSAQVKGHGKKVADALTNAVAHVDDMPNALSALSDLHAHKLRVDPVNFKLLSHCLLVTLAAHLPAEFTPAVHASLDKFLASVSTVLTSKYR

The Kd is the equilibrium constant for the complex coming apart. Read a low Kd as tighter binding. Regarding Alpha globin (from UniProt P69905), the Kd in assay [1] was 1.3 µM. On to “recombinant human eNOS oxidase domain (domain or fragment)”, for which the Kd in assay [2] is 1.31 µM.

The values above are taken from article doi:10.1101/2021.04.06.21255004.
